What is called Tm is the temperature at which the thermal transition is half complete.

Values joined by “and” are separate entries in the source; they are usually repeats but may differ in a detail not shown here. Equal entries are not always repeated.

The record followed here is FireProtDB (doi:10.1021/bi0015717).

The labels stand for the following.
B1: Lysozyme C, P61626 (parent)
chain: MKALIVLGLVLLSVTVQGKVFERCELARTLKRLGMDGYRGISLANWMCLAKWESGYNTRATNYNAGDRSTDYGIFQINSRYWCNDGKTPGAVNACHLSCSALLQDNIADAVACAKRVVRDPQGIRAWVAWRNRCQNRDVRQYVQGCGV

In one series the parent is B1. The following applies: Homo sapiens; pH 2.53; Thermal; DSC; glycine-HCl 0.05 M; reversible: yes; structure 1LZ1; whole UniProt chain shown.
For MKALIVLGLVLLSVTVQGKVFERCELARTLKRLGMDGYRGISLANWMCLAKWESGYNTRATNYNAGDRSTDYGIFQINSRYWCNDGKTPGAGNACHLSCSALLQDNIADAVACAKRVVRDPQGIRAWVAWRNRCQNRDVRQYVQGCGV, the Tm was determined as 61.3 °C and the “unfolding enthalpy (calorimetric)” value amounted to 108 kcal/mol.

The series is the same for the next values; noted with them: Homo sapiens; pH 2.7; 64.9 °C; Thermal; DSC; glycine-HCl 0.05 M; reversible: yes; structure 1LZ1; whole UniProt chain shown.
MKALIVLGLVLLSVTVQGKVFERCELARTLKRLGMDGYRGISLANWMCLAKWESGYNTRATNYNAGDRSTDYGIFQINSRYWCNDGKTPGAGNACHLSCSALLQDNIADAVACAKRVVRDPQGIRAWVAWRNRCQNRDVRQYVQGCGV: the “ddG of mutation (higher = less stable)” value amounted to 0.22 kcal/mol.
Still for that read-out and setting: the result for MKALIVLGLVLLSVTVQGKVFERCELARTLKRLGMDGYRGISLANWMCLAKWESGYNTRATNYNAGDRSTDYGIFQINSRYWCNDGKTPGAMNACHLSCSALLQDNIADAVACAKRVVRDPQGIRAWVAWRNRCQNRDVRQYVQGCGV reads -0.65 kcal/mol.
Take MKALIVLGLVLLSVTVQGKVFERCELARTLKRLGMDGYRGISLANWMCLAKWESGYNTRATNYNAGDRSTDYGIFQINSRYWCNDGKTPGAVNACHLSCSALLQDNIADAVACAKRVVRDPQGIRAWLAWRNRCQNRDVRQYVQGCGV: the “ddG of mutation (higher = less stable)” value was -0.07 kcal/mol.

Still in this series, the particulars now being: Homo sapiens; pH 2.7; Thermal; DSC; glycine-HCl 0.05 M; reversible: yes; structure 1LZ1; whole UniProt chain shown.
Regarding MKALIVLGLVLLSVTVQGKVFERCELARTLKRLGMDGYRGISLANWMCLAKWESGYNTRATNYNAGDRSTDYGIFQINSRYWCNDGKTPGAGNACHLSCSALLQDNIADAVACAKRVVRDPQGIRAWVAWRNRCQNRDVRQYVQGCGV, the midpoint of thermal melting (Tm) worked out at 64.9 °C.
Regarding MKALIVLGLVLLSVTVQGKVFERCELARTLKRLGMDGYRGISLANWMCLAKWESGYNTRATNYNAGDRSTDYGIFQINSRYWCNDGKTPGAMNACHLSCSALLQDNIADAVACAKRVVRDPQGIRAWVAWRNRCQNRDVRQYVQGCGV, the midpoint of thermal melting (Tm) is 66.9 °C and 64.9 °C; the “change of melting temperature, mutant - wild type (higher = more stable)” value (“change of melting temperature, mutant” below) turned out to be 2 °C; the “heat capacity change of unfolding” value was found to be 1.58 kcal/mol/K; the “unfolding enthalpy (calorimetric)” value is 113 kcal/mol and 109 kcal/mol.
MKALIVLGLVLLSVTVQGKVFERCELARTLKRLGMDGYRGISLANWMCLAKWESGYNTRATNYNAGDRSTDYGIFQINSRYWCNDGKTPGAVNACHLSCSALLQDNIADAVACAKRVVRDPQGIRAWLAWRNRCQNRDVRQYVQGCGV: the Tm was 65 °C and 65.1 °C and 64.9 °C; the “change of melting temperature, mutant” value worked out at 0.2 °C; the “heat capacity change of unfolding” value is 1.29 kcal/mol/K; the “unfolding enthalpy (calorimetric)” value was 108 kcal/mol and 109 kcal/mol.
Consider MKALIVLGLVLLSVTVQGKVFERCELARTLKRLGMDGYRGISLANWMCLAKWESGYNTRATNYNAGDRSTDYGIFQINSRYWCNDGKTPGAVNACHLSCSALLQDNIADAVACAKRVVRDPQGIRAWMAWRNRCQNRDVRQYVQGCGV, for which the Tm was 66.3 °C and 66.5 °C and 64.9 °C; the “change of melting temperature, mutant” value amounted to 1.6 °C; the “heat capacity change of unfolding” value is 1.41 kcal/mol/K; the “unfolding enthalpy (calorimetric)” value is 114 kcal/mol and 112 kcal/mol.

The same series, now with this note: Homo sapiens; pH 2.95; Thermal; DSC; glycine-HCl 0.05 M; reversible: yes; structure 1LZ1; whole UniProt chain shown.
As for MKALIVLGLVLLSVTVQGKVFERCELARTLKRLGMDGYRGISLANWMCLAKWESGYNTRATNYNAGDRSTDYGIFQINSRYWCNDGKTPGAGNACHLSCSALLQDNIADAVACAKRVVRDPQGIRAWVAWRNRCQNRDVRQYVQGCGV, the midpoint of thermal melting (Tm) was determined as 68.7 °C and the “unfolding enthalpy (calorimetric)” value was 121 kcal/mol.

Staying with this series, now noted: Homo sapiens; pH 3.09; Thermal; DSC; glycine-HCl 0.05 M; reversible: yes; structure 1LZ1; whole UniProt chain shown.
Regarding MKALIVLGLVLLSVTVQGKVFERCELARTLKRLGMDGYRGISLANWMCLAKWESGYNTRATNYNAGDRSTDYGIFQINSRYWCNDGKTPGAGNACHLSCSALLQDNIADAVACAKRVVRDPQGIRAWVAWRNRCQNRDVRQYVQGCGV, the Tm came out at 70.8 °C and the “unfolding enthalpy (calorimetric)” value was found to be 124 kcal/mol.

The same series, now with this note: Homo sapiens; pH 3.3; Thermal; DSC; glycine-HCl 0.05 M; reversible: yes; structure 1LZ1; whole UniProt chain shown.
Take MKALIVLGLVLLSVTVQGKVFERCELARTLKRLGMDGYRGISLANWMCLAKWESGYNTRATNYNAGDRSTDYGIFQINSRYWCNDGKTPGAGNACHLSCSALLQDNIADAVACAKRVVRDPQGIRAWVAWRNRCQNRDVRQYVQGCGV: the melting temperature (Tm) was determined as 74 °C and the “unfolding enthalpy (calorimetric)” value was found to be 129 kcal/mol.

Still in this series, the particulars now being: Homo sapiens; pH 2.5; Thermal; DSC; glycine-HCl 0.05 M; reversible: yes; structure 1LZ1; whole UniProt chain shown.
In the case of MKALIVLGLVLLSVTVQGKVFERCELARTLKRLGMDGYRGISLANWMCLAKWESGYNTRATNYNAGDRSTDYGIFQINSRYWCNDGKTPGAMNACHLSCSALLQDNIADAVACAKRVVRDPQGIRAWVAWRNRCQNRDVRQYVQGCGV, the Tm was determined as 63.4 °C and the “unfolding enthalpy (calorimetric)” value came to 107 kcal/mol.
In the case of MKALIVLGLVLLSVTVQGKVFERCELARTLKRLGMDGYRGISLANWMCLAKWESGYNTRATNYNAGDRSTDYGIFQINSRYWCNDGKTPGAVNACHLSCSALLQDNIADAVACAKRVVRDPQGIRAWLAWRNRCQNRDVRQYVQGCGV, the Tm stood at 61.9 °C and the “unfolding enthalpy (calorimetric)” value came out at 105 kcal/mol.

Still in this series, the particulars now being: Homo sapiens; pH 2.83; Thermal; DSC; glycine-HCl 0.05 M; reversible: yes; structure 1LZ1; whole UniProt chain shown.
With MKALIVLGLVLLSVTVQGKVFERCELARTLKRLGMDGYRGISLANWMCLAKWESGYNTRATNYNAGDRSTDYGIFQINSRYWCNDGKTPGAMNACHLSCSALLQDNIADAVACAKRVVRDPQGIRAWVAWRNRCQNRDVRQYVQGCGV, the midpoint of thermal melting (Tm) worked out at 69.4 °C and the “unfolding enthalpy (calorimetric)” value is 117 kcal/mol.

The same series, now with this note: Homo sapiens; pH 3.1; Thermal; DSC; glycine-HCl 0.05 M; reversible: yes; structure 1LZ1; whole UniProt chain shown.
As to MKALIVLGLVLLSVTVQGKVFERCELARTLKRLGMDGYRGISLANWMCLAKWESGYNTRATNYNAGDRSTDYGIFQINSRYWCNDGKTPGAMNACHLSCSALLQDNIADAVACAKRVVRDPQGIRAWVAWRNRCQNRDVRQYVQGCGV, the midpoint of thermal melting (Tm) turned out to be 73.2 °C and the “unfolding enthalpy (calorimetric)” value worked out at 123 kcal/mol.

Still in this series, the particulars now being: Homo sapiens; pH 3.2; Thermal; DSC; glycine-HCl 0.05 M; reversible: yes; structure 1LZ1; whole UniProt chain shown.
With MKALIVLGLVLLSVTVQGKVFERCELARTLKRLGMDGYRGISLANWMCLAKWESGYNTRATNYNAGDRSTDYGIFQINSRYWCNDGKTPGAMNACHLSCSALLQDNIADAVACAKRVVRDPQGIRAWVAWRNRCQNRDVRQYVQGCGV, the melting temperature (Tm) was determined as 75 °C and the “unfolding enthalpy (calorimetric)” value stood at 125 kcal/mol.

The same series, now with this note: Homo sapiens; pH 2.82; Thermal; DSC; glycine-HCl 0.05 M; reversible: yes; structure 1LZ1; whole UniProt chain shown.
With MKALIVLGLVLLSVTVQGKVFERCELARTLKRLGMDGYRGISLANWMCLAKWESGYNTRATNYNAGDRSTDYGIFQINSRYWCNDGKTPGAVNACHLSCSALLQDNIADAVACAKRVVRDPQGIRAWLAWRNRCQNRDVRQYVQGCGV, the Tm stood at 67 °C and the “unfolding enthalpy (calorimetric)” value is 111 kcal/mol.

The same series, now with this note: Homo sapiens; pH 3.03; Thermal; DSC; glycine-HCl 0.05 M; reversible: yes; structure 1LZ1; whole UniProt chain shown.
In the case of MKALIVLGLVLLSVTVQGKVFERCELARTLKRLGMDGYRGISLANWMCLAKWESGYNTRATNYNAGDRSTDYGIFQINSRYWCNDGKTPGAVNACHLSCSALLQDNIADAVACAKRVVRDPQGIRAWLAWRNRCQNRDVRQYVQGCGV, the midpoint of thermal melting (Tm) came to 70.5 °C and the “unfolding enthalpy (calorimetric)” value was determined as 115 kcal/mol.

The same series, now with this note: Homo sapiens; pH 3.25; Thermal; DSC; glycine-HCl 0.05 M; reversible: yes; structure 1LZ1; whole UniProt chain shown.
As to MKALIVLGLVLLSVTVQGKVFERCELARTLKRLGMDGYRGISLANWMCLAKWESGYNTRATNYNAGDRSTDYGIFQINSRYWCNDGKTPGAVNACHLSCSALLQDNIADAVACAKRVVRDPQGIRAWLAWRNRCQNRDVRQYVQGCGV, the melting temperature (Tm) was 74.5 °C and the “unfolding enthalpy (calorimetric)” value stood at 121 kcal/mol.

The series is the same for the next values; noted with them: Homo sapiens; pH 2.48; Thermal; DSC; glycine-HCl 0.05 M; reversible: yes; structure 1LZ1; whole UniProt chain shown.
Turning to MKALIVLGLVLLSVTVQGKVFERCELARTLKRLGMDGYRGISLANWMCLAKWESGYNTRATNYNAGDRSTDYGIFQINSRYWCNDGKTPGAVNACHLSCSALLQDNIADAVACAKRVVRDPQGIRAWMAWRNRCQNRDVRQYVQGCGV, the Tm turned out to be 62.8 °C and the “unfolding enthalpy (calorimetric)” value was 109 kcal/mol.

Still in this series, the particulars now being: Homo sapiens; pH 3.06; Thermal; DSC; glycine-HCl 0.05 M; reversible: yes; structure 1LZ1; whole UniProt chain shown.
With MKALIVLGLVLLSVTVQGKVFERCELARTLKRLGMDGYRGISLANWMCLAKWESGYNTRATNYNAGDRSTDYGIFQINSRYWCNDGKTPGAVNACHLSCSALLQDNIADAVACAKRVVRDPQGIRAWMAWRNRCQNRDVRQYVQGCGV, the Tm came to 72.8 °C and the “unfolding enthalpy (calorimetric)” value came to 123 kcal/mol.
